Laboratory results taken from US6528098B2, “Preparation of a therapeutic composition” (Advanced Viral Research Corp., priority 1996, dated 2003).
Entries after “also recorded” stand apart in the source; their conditions may differ. No end group written: not given here.

Experiments:
[1] = target: T1, bovine pancreatic Ribonuclease A (Bos taurus, UniProt P61823); assay: Treatment of Product R with ribonuclease A, SDS-PAGE on a 16% gel; format: physicochemical; design: key: “−” represents no substantial alteration of the stainable bands; “+” represents substantial alteration of the stainable bands; details: 37° C., about 1 hour
T1 construct: purchased ICN Biochemicals, USA
T1 sequence (P61823 27-150): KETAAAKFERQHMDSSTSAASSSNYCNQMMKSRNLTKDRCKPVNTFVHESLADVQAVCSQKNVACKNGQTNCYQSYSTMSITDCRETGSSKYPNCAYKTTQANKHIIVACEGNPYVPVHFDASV
Method: (§1) The biochemical properties of the peptides: Some biochemical properties of the silverstainable peptide components of Product R are analyzed using various catabolic enzymes, as described below:
The treatment with ribonuclease A (ICN Biochemicals, USA): Ribonuclease A is a pyrimidine specific endoribonuclease that acts on single stranded RNA. A Product R sample is incubated in a reaction buffer containing 10 mM Tris-HCl, pH 7.4, 3 mM MgCl2, and I mg/ml of bovine pancreatic Ribonuclease A at 37° C. for about 1 hour and subject to SDS-PAGE on a 16% gel. […] The resistance to ribonuclease A excludes the possibility of the presence of a RNA fragment attached to the peptide.
(§2) A summary of the above described treatments by catabolic enzymes is provided in the following TABLE III, and the results of the treatment are shown in FIG. 5, wherein “−” represents no substantial alteration of the stainable bands and “+” represents substantial alteration of the stainable bands.

[2] = test system: Calf thymus alkaline phosphatase (CIAP); assay: Treatment of Product R with alkaline phosphatase, SDS-PAGE on a 16% gel; format: physicochemical; design: key to Sensitivity of the Peptide Components of Product R (SDS-PAGE): Alkaline Phosphatase (200 units/ml): “−” represents no substantial alteration of the stainable bands; “+” represents substantial alteration of the stainable bands; details: 200 units/ml CIAP, 37° C., about one hour
Method: as §1
The treatment with alkaline phosphatase (Life Technologies, USA): Calf thymus alkaline phosphatase (CIAP) is a phosphomonoesterase that hydrolyses 5′-phosphate groups from DNA, RNA and nucleotides. A Product R sample is incubated in a reaction buffer provided by the manufacturer of the enzyme and 200 units/ml CIAP at 37° C. for about one hour and subjected to SDS-PAGE on a 16% gel.
as §2

[3] = test system: MCP-1 secretion by U937 cells; assay: MCP-1 secretion by cultured U937 cells, ELISA; format: cell-based, human; details: for production of monocyte chemotactic protein 1 (MCP-1) in U937 cells: general statement; for up-regulation of MCP-1 secretion compared with Product R: peptide solutions 2 mg/ml, equimolar mixture 4 mg/ml, final concentration 10% in culture media, FIG. 20
Method: (§3) Ammonium sulfate precipitation of Product U peptides: Product U samples are lyophilized and re-dissolved in 20% of original sample volume in water (5X concentrated). Ammonium sulfate crystals are added to the solution to reach 60% ammonium sulfate saturation (390 mg/ml solution). Gentle mixing solubilizes crystals. Protein precipitates appear after 30 mm to 1 hr incubation on ice and is centrifuged at 16,000×g for 30 min. at […]. The pellet is dissolved in 5% of original sample volume in water. The solution is desalted by gel filtration chromatography through a column of BioGel P-2. The column is eluted with 0.1X phosphate buffered saline (PBS). Only protein containing fractions are pooled and lyophilized.
(§4) Separation and isolation of two major neptide of Product R by gel ruhranon chromatography: A BioGel P-10 column (1.6 cm×52 cm) was equilibrated with 0.1X concentration of PBS. Two ml of 2X concentrated Product R was applied to the column, which was eluted with the same buffer at a flow rate of 25 mI/hr. Four mm. fractions were collected. All protein-containing fractions are analyzed by Sodium dodecyl sulfate polyacrilamide gel electrophoresis (SDS-PAGE). Fraction, containing primarily peptide A and peptide B are pooled separately and lyophilized. Peptide A pool contains very little contamination of the other peptide, however, the peptide B pool is highly enriched but still contains peptide A as a major contaminant. A reasonable estimate of peptide purity in the pools is >90% for peptide A and >75% for peptide B.
U937 cell culture: The U937 human hystiocytic lymphoma cell line was purchased from the American Type Culture Collection. […]
Product R or isolated peptide treatment: Cells (1.0×10^5/ml) are cultured in growth medium containing Product R, isolated purified peptide solution, mixed peptides solution or Dulbecco's PBS for 2 days. Following centrifugation, the culture supernatants are analyzed using chemokine ELISA kits. […]
(§5) Measurement of secreted IL-8 and MCP-1: The concentrations of IL-8 and MCP-1 in the culture supernatants are assayed by ELISA, using human IL-S ELISA kits (Endogen. Inc.) and Quantikine human MCP-1 ELISA kits (R&D Systems, Inc.), respectively, according to manufacturer's instructions (with slight modifications for the MCP-1 ELISA). […] Absorbances are measured on a PowerWave 200 Microplate Scanning Spectrophotometer. Dilutions of the standard protein supplied by each manufacturer are utilized to generate a four-parameter logistic fit standard curve, and the concentration of chemokine in each supernatant is determined by extrapolation.

chymotrypsin = target: T2, chymotrypsin (Bos taurus, UniProt P00766); assay: Treatment of Product R with chymotrypsin, SDS-PAGE on a 16% gel; format: physicochemical; design: key to Sensitivity of the Peptide Components of Product R (SDS-PAGE): Chymotrypsin (250 μg/ml): “−” represents no substantial alteration of the stainable bands; “+” represents substantial alteration of the stainable bands; details: 250 μg/ml chymotrypsin, 25° C., 19 hours
T2 construct: purchased Boehringer Mannheim, USA
Method: as §1
The treatment with chymotrypsin (Boehringer Mannheim, USA):Chymotrypsin is a serine protease that specifically hydrolyses the peptide bonds of tyrosine, phenylalanine and tryptophan at C-terminals. It also cleaves peptide bonds of leucine, methionine, alanine, aspartic acid and glutamic acid at C-terminals at relatively lower rates. A Product R sample is incubated in a reaction buffer containing 100 mM Tris-HCl, pH 7.6, 10 mM CaCl2 and 250 μg/ml of sequencing grade chymotrypsin at 25° C. for 19 hours and then subject to SDS-PAGE on a 16% gel.
as §2

[4] = test system: IL-8 secretion by U937 cells; assay: IL-8 secretion by cultured U937 cells, ELISA; format: cell-based, human; details: for production of interlukin-8 (IL-8) in U937 cells: general statement; for up-regulation of IL-8 secretion compared with Product R: peptide solutions 2 mg/ml, equimolar mixture 4 mg/ml, final concentration 10% in culture media, FIG. 20
Method: as §3, §4
U937 cell culture: The U937 human hystiocytic lymphoma cell line was purchased from the American Type Culture Collection. Cells were thawed and maintained in logarithmic growth (5-9×10^5 cells/mL) in RPMI 1640 culture medium, supplemented with 10% fetal bovine serum, heat inactivated at 56° C. for 30 min, 2mM L-glutamine and 1x Penicillin-Streptomycin.
Product R or isolated peptide treatment: Cells (1.0×10^5/ml) are cultured in growth medium containing Product R, isolated purified peptide solution, mixed peptides solution or Dulbecco's PBS for 2 days. Following centrifugation, the culture supernatants are analyzed using chemokine ELISA kits. Final concentration of Product R in the culture medium was 10% (v/v). The ammonium sulfate precipitated peptides were reconstituted in culture medium to yield a 10 mg/ml solution. Two 2-fold dilutions were prepared, also using culture medium as diluent. These solutions were used at a final concentration of 10% in the U937 cell culture. The individual lyophilized peptides were reconstituted in endotoxin-free water to yield 2 mg/ml solutions (which is the approximate concentration of each peptide in Product R). An equimolar mixture of both peptides was prepared at a final concentration of 4 mg/ml. Both were used at a final concentration of 10% in the culture media for the assays.
as §5

Sequence	Sensitivity of the Peptide Components of Product R (SDS-PAGE): Ribonuclease A (1 mg/ml) [1]	Sensitivity of the Peptide Components of Product R (SDS-PAGE): Alkaline Phosphatase (200 units/ml) [2]	change of band intensity / hydrolysis by alkaline phosphatase [2]	production of monocyte chemotactic protein 1 (MCP-1) in U937 cells [3]	up-regulation of MCP-1 secretion compared with Product R ([3]; listed as peptide-B)	Sensitivity of the Peptide Components of Product R (SDS-PAGE): Chymotrypsin (250 μg/ml) (chymotrypsin)	change of band intensity after chymotrypsin treatment (chymotrypsin)	production of interlukin-8 (IL-8) in U937 cells [4]	up-regulation of IL-8 secretion compared with Product R ([4]; listed as Peptide B)	up-regulation of IL-8 secretion compared with Product R ([4]; listed as peptide-B)	up-regulation of MCP-1 secretion compared with Product R [3]	up-regulation of IL-8 secretion compared with Product R [4]
GEIPDAGGRIVDYYVGFSDSV (not fully specified (residue 18)) [Peptide-B, 21-amino acid peptide linked at serine 18 through a diphosphodiester group to the 3′-end of an adenylyl (3′-5′) adenosine moiety]	−	−	resistance	capable of inducing the production; also recorded: contributes more to the activity than peptide-A	failed to elicit a response same as that of Product R; also recorded: slightly more active than peptide A; also recorded: induces higher levels of secretion of IL-8 or MCP-1 than peptide-A	−	no apparent effect	capable of inducing the production; also recorded: contributes more to the activity than peptide-A	maintained most of the ability of Product R to up-regulate IL-8 secretion	induces higher levels of secretion of IL-8 or MCP-1 than peptide-A		
KVLPVPQKAVPYPQRDMPIQAFLLYQEPVLG [Peptide-A, 31-amino-acid long peptide derived from bovine beta-casein, constituent of Product R]	−	−		capable of inducing the production		+	significantly reduces the intensity	capable of inducing the production			failed to elicit a response same as that of Product R	only elicited a less response
